{
  "source": "a protein production outcome set (Wang et al. 2014)",
  "data": [
    {"assay": "label from the status in PepcDB records", "values": [
      {"sequence": "MNLVETAQAIEAGQVSLGIELGSTRIKAVLVTDDFNTIASGSYVWENRFEDGVWTYPLEEVWSGIQQSYTQMAADVQSKYHASLKHINAIGVSAMMHGYLAFDKNNELLVPFRTWRNNITGQSADELTKLFDFNIPQRWSIAHLYQAVLNDEDHVAKVDFITTLAGYVTWKLSGEKVLGVGDASGVFPIDEKTGSYDQAMLDKFSSLDNVKRYPWQIENILPSILPAGKIAGKLTADGANLLDASGNLEAGSVMAPPEGDAGTGMVGTNSVRKRTGNISVGTSAFSMNVLDKPLSKVYRDIDIVMTPDGSPVAMVHVNNCSSDINAWASIFSEFAARLGVDLKPDRLYETLFLESTKADANAGGLVNYSYQSGENITKIQAGRPLFVRTPNSKFSLPNFMLTQLYAAFAPLQIGMDILVNEEHVQTDVMIAQGGLFRTPVIGQQVLANALNIPITVMSTAGEGGPWGMAVLAAYAQRQTGANLEDFLDQEVFTNPESMTLSPEPAGVAGYQEFIKNYQAGLPVEAAAGEAISD", "protein production": "failed"},
      {"sequence": "MNMAHTTTSMEIFGSPEQVWQLIGGFNSLPDWLPYIPSSKLTEGGRVRHLANPDGDTIIERLEVFNDKERYYTYSIMNAPFPVTNYLSTIQVKEGTESNTSLVEWSGTFTPVEVSDEEAINLFHGIYSDGLKALQQAFLDLEHHHHHH", "protein production": "not failed"},
      {"sequence": "MNMVQGSAFLAKLMKSADTFELKYDFSCELYRLSTYSTFPAGVPVSERSLARAGFYYTGVNDKVKCFSCGLMLDNWKQGDSPIEKHRKLYPSCSFVQTLNPANSLEASPQPPLPSTATSTMPSGFAASESTGYFSGSYSSFPSDPVNFRANQDCPAFSTSPYHFAMNTEKARLLTYQTWPLSFLSPAELAKAGFYYTGPGDRVACFACGGKLSNWDRKDDPLSEHRRHFPSCPFLKDVGQFTSQYTVSNLSMQTHAARVRTFSTWPSSALVHPQELASAGFYYTGHSDDVKCFCCDGGLRCWESGDDPWVEHAKWFPRCEYLIRIKGQEFVGQVQAGYPHLLEQLLSTSDSPEDETGEAAIVHLGPGENWEDAVMMNTPVVKAALDMGFSRSLVRQTVQRQILATGENYRTVSDLVIGLLDAEDEMREEQTEQEAEEEESDDLTLIRKNKMVLLQHLTPVTPILDCLLSARVITEQEYDAVKQKPHTLQARTLIDTVLAKGNTAATSFRNSLQEIDPGLYRDIFVRQNIRSLPTDDIAALPMEEQLRKLQEERTCKVCMDREVSLVFIPCGHLVVCKECAPSLRKCPICRGTIKGTVRTFLS", "protein production": "failed"},
      {"sequence": "MNNDNNTILGFDVNLICDFFLNTERQGPGSPEVTLKALSFIDNLTNKSLIADLGCGTGGQTMILAQHVPGKITGIDFFPGFIERFNKNAEKLNLQNRVKGIVGSMDDLSFEKDSLDLIWSEGAIYNIGFERGLKEWRNYLKPGGYLAVSESVWFTDQRPAEIHDFWMSAYTEIDTVPNKVAQIQKAGYIPVATFILPENCWIEHYFAPQAKAEEIFRRKHAGSRIVEELITSNHHEAELYSKYKAYYGYAFFICKKGFSLRR", "protein production": "failed"},
      {"sequence": "MNNGRRIGLIMIITGATLWGLSGPMIQWLFQHTNVSSIDFLTIRLLLAGIFILSFLLIKKQNIFQIWKHPRYSIQLIIFSILGMLGAQYAFIETVHISNAVTATLFQFLGPVLITMYVAFEQRKFPASMQLFAIIAALIGTYFIITNGSIENIVLSKEAIIFGLLTAIGFAFYTLHPASLIKECGTTVVIGWGMLIGGIALLIYNRSFGWNQFSQTLTLKTFSMLILIIISGTLSFLLYIGSLKYLAATETSILSSIEPLVAAIVSITWLNESFGTYQLLGGVCIVLSVIFLTMPQKETEPTYTTEQI", "protein production": "failed"},
      {"sequence": "MNNIILMPILIPFLGAITLMLLPKRVIVQRVFALIFSGILVVATIGLVFYIRENGITTVNIGNWAAPFGITMVGDMLAVLLTATTSIVLFCVILYSFYTIGKPREKFLYYPAILFMIVGVNGSFLTGDIFNMFVFFEVMLMASYVLLVIGGTQVQLKATIKYLLINVVGSGFFVVAIALLYSMIGTLNMADISQKITDLNGANTGMISIVAVLFLFVFGLKAGLFPLYFWLPGSYFAPPIPVLALFGGLLTKVGVYAIIRTYTLFFSSLTDFVVPLLGILAIVTIILGVIGAISYYDMKTIVIYNIMIAIGVILFSVSIMTRESMTGAVFYLIHDMIIKAALFLIVGIVMAITGYSSVKKFSGLMSVKPSLGWIFFIATLGLAGIPPLSGFIGKLLIVEGAFSAGQMVGGIIILLSSLFVLMSLIKVFTKGFWGEKKGVFNLQIPYKKMLVPVVILLAISIGYGVFSNAIYPFIEQAVDPLVDPSVYIHAVIKE", "protein production": "failed"},
      {"sequence": "MNNPITAVWEITMGCNMRCKHCGSSCENALEGELTTEEALKLCDELGELGFKWITLSGGEPTTRKDWHLIAKRLNENGIIPNMITNGWLMNEEIADKAVEAGINTVAISVDGLEETHDFIRKKGSFQRIMRAFDILRTRNIFYSAITTINNINIKELPRLRDILIEKGVRGWQLQLGLPMGNMAKNNELVAQPYHIDEVIEFSYKTVKEGYNIDVQLADCIGYFNLKEIEVRKNSYGGGRDGYNWTGCGAGKYSLGILHNGDILGCTSVRDRSFIEGNIRQTPIKEIWMNPDSFSWNRKMTKDKLSGLCKKCYFGERCLGGCSNTRLTMEGSVYSENRYCSYNVAISTAREQLDRIEDVDVMLSKAKKFADNGNFQLAEILLSRAIEKGCRDIGVFEFYGYISFMLGNYLDAKKANEEALKINPDSAYANKGMGLSLGRLGELEKGIEYLRKAIALSDENFTDPYYDLAVLLYENGRKEEALEVLEEGRKKYKSFIDTSKDLYDILTNAS", "protein production": "failed"},
      {"sequence": "MNNPSETSKPSMESGDGNTGTQTNGLDFQKQPVPVGGAISTAQAQAFLGHLHQVQLAGTSLQAAAQSLNVQSKSNEESGDSQQPSQPSQQPSVQAAIPQTQLMLAGGQITGLTLTPAQQQLLLQQAQAQAQLLAAAVQQHSASQQHSAAGATISASAATPMTQIPLSQPIQIAQDLQQLQQLQQQNLNLQQFVLVHPTTNLQPAQFIISQTPQGQQGLLQAQNLLTQLPQQSQANLLQSQPSITLTSQPATPTRTIAATPIQTLPQSQSTPKRIDTPSLEEPSDLEELEQFAKTFKQRRIKLGFTQGDVGLAMGKLYGNDFSQTTISRFEALNLSFKNMCKLKPLLEKWLNDAENLSSDSSLSSPSALNSPGIEGLSRRRKKRTSIETNIRVALEKSFLENQKPTSEEITMIADQLNMEKEVIRVWFCNRRQKEKRINPPSSGGTSSSPIKAIFPSPTSLVATTPSLVTSSAATTLTVSPVLPLTSAAVTNLSVTGTSDTTSNNTATVISTAPPASSAVTSPSLSPSPSASASTSEASSASETSTTQTTSTPLSSPLGTSQVMVTASGLQTAAAAALQGAAQLPANASLAAMAAAAGLNPSLMAPSQFAAGGALLSLNPGTLSGALSPALMSNSTLATIQALASGGSLPITSLDATGNLVFANAGGAPNIVTAPLFLNPQNLSLLTSNPVSLVSAAAASAGNSAPVASLHATSTSAESIQNSLFTVASASGAASTTTTASKAQ", "protein production": "failed"},
      {"sequence": "MNNRELGRWQEHKHIGDYGWGIILCVIILCCIGMWAVYYACLHDLKVIDPVRTTMMQCLWYLVGALIATTMLHLSEKQLMQWAPIGYSIGMLLLILLLVLYSREYYVQTGAKSWFAIGTLTFQPVEVMKPLYILMMGRLIVQDQQWGPHNNFNADWRLTRRLVIYTFPIIVALKIINDFGTTLVFLTIFIGMLIVSPCRFSFLWRVLLVAGSIGVVLILLATSSTGQSLLSHIGFKLYQFDRINTWLNPSNGVSDQSYQLWQSMRAVGVGGLTGNGVTHNAVYVPVRESDMIFSVVGETTGFIGCSVLLIVYMYLFYLIFRSAFASRRRFYVYVSTGVAVMLAFHMFENIGMTIGLLPLTGIPLPFVSQGGSAIIGDFMGVGLVLATQYPNVRSIFSVPRIFH", "protein production": "failed"},
      {"sequence": "MNNSINHKFHHISRAEYQELLAVSRGDAVADYIIDNVSILDLINGGEISGPIVIKGRYIAGVGAEYADAPALQRIDARGATAVPGFIDAHLHIESSMMTPVTFETATLPRGLTTVICDPHEIVNVMGEAGFAWFARCAEQARQNQYLQVSSCVPALEGCDVNGASFTLEQMLAWRDHPQVTGLAEMMDYPGVISGQNALLDKLDAFRHLTLDGHCPGLGGKELNAYITAGIENCHESYQLEEGRRKLQLGMSLMIREGSAARNLNALAPLINEFNSPQCMLCTDDRNPWEIAHEGHIDALIRRLIEQHNVPLHVAYRVASWSTARHFGLNHLDLLAPGKQADIVLLSDARKVTVQQVLVKGEPIDAQTLQAEESARLAQSAPPYGNTIARQPVSASDFALQFTPGKRYRVIDVIHNELITHSHSSVYSENGFDRDDVCFIAVLERYGQRLAPACGLLGGFGLNEGALAATVSHDSHNIVVIGRSAEEMALAVYQVIQDGGGLCVVRNGQVQSHLPLPIAGLMSTDTAQSLAEQIDALKAAARECGPLPDEPFIQMAFLSLPVIPALKLTSQGLFDGEKFVFTTLEVTE", "protein production": "failed"}
    ]}
  ]
}
